Results published in article PMC12138080 (Acta Pharmaceutica Sinica. B, 2025).

Biological target: T1, Human GRK2 protein (His Tag) (human, UniProt P25098 1-689)
T1 sequence: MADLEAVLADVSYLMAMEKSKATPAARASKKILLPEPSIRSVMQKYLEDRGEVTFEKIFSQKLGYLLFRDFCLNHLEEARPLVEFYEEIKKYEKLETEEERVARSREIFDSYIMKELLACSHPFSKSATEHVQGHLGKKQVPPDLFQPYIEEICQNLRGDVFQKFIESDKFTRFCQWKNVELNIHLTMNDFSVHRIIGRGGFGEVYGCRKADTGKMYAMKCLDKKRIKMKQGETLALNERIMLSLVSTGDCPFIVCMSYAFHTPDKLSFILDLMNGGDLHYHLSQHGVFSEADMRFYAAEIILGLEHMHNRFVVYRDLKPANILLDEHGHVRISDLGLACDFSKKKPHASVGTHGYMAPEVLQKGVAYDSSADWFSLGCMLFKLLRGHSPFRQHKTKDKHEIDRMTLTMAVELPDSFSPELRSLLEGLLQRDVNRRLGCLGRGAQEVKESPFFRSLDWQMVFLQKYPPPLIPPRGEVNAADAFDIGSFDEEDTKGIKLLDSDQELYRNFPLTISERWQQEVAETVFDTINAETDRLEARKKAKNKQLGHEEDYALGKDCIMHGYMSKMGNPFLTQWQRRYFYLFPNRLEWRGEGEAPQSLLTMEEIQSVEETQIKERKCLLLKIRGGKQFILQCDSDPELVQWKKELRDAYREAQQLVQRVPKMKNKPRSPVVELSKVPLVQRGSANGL
Test: SPR

B1: Human TRAF2 protein (His Tag) (natural protein)
chain: MAAASVTPPGSLELLQPGFSKTLLGTKLEAKYLCSACRNVLRRPFQAQCGHRYCSFCLASILSSGPQNCAACVHEGIYEEGISILESSSAFPDNAARREVESLPAVCPSDGCTWKGTLKEYESCHEGRCPLMLTECPACKGLVRLGEKERHLEHECPERSLSCRHCRAPCCGADVKAHHEVCPKFPLTCDGCGKKKIPREKFQDHVKTCGKCRVPCRFHAIGCLETVEGEKQQEHEVQWLREHLAMLLSSVLEAKPLLGDQSHAGSELLQRCESLEKKTATFENIVCVLNREVERVAMTAEACSRQHRLDQDKIEALSSKVQQLERSIGLKDLAMADLEQKVLEMEASTYDGVFIWKISDFARKRQEAVAGRIPAIFSPAFYTSRYGYKMCLRIYLNGDGTGRGTHLSLFFVVMKGPNDALLRWPFNQKVTLMLLDQNNREHVIDAFRPDVTSSSFQRPVNDMNIASGCPLFCPVSKMEAKNSYVRDDAIFIKAIVDLTGL
  Kd: 0.0312 µM
